Data as given in doi:10.1101/2020.01.19.911941 (bioRxiv, 2020).

B1: human PD-L2 (#10292-H08H, SinoBiological) (ligand)
chain: LFTVTVPKELYIIEHGSNVTLECNFDTGSHVNLGAITASLQKVENDTSPHRERATLLEEQLPLGKASFHIPQVQVRDEGQYQCIIIYGVAWDYKYLTLKVKASYRKINTHILKVPETDEVELTCQATGYPLAEVSWPNVSVPANTSHSRTPEGLYQVTSVLRLKPPPGRNFSCVFWNTHVRELTLASIDLQSQMEPRTHPT
B2: sPD-1 V2 Fc (Fc fusion)
chain: LDSPDRPWNPPTFSPALLVVTEGDNATFTCSFSNTSEGFVLNWYRMSPSNQTDKLAAFPEDRGQLGQDCRFRVTQLPNGRDFHMSVVRARRNDSGTYLCSAIVLAPKIQIKESLRVELRVTERRAEVPTAHPSPSPRPAGQFQTLV

Experiments:
[1] = target: sPD-1 V1 Fc (human) (UniProt Q15116); assay: SPR
[2] = target: mouse PD-L1 in wild-type parental MC38 cells (mouse (endogenous in MC38), UniProt Q9EP73 19-290); assay: flow cytometry on cells
mouse PD-L1 in wild-type parental MC38 cells, sequence (Q9EP73 19-290): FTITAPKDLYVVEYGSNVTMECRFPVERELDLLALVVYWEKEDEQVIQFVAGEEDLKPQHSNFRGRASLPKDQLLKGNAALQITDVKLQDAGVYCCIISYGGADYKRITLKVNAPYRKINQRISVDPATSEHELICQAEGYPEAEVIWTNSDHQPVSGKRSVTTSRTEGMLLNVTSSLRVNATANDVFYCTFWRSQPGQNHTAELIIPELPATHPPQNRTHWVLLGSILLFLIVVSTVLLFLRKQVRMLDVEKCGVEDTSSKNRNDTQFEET

| Binder | fold improvement in binding affinity over wild type sPD-1 [1] [fold] | fold increase in binding signal over wild-type sPD-1 [2] [fold] |
| --- | --- | --- |
| B1 | 200 |  |
| B2 |  | ~4 |
